Bridges are numbered along the chain shown (N, C = ends). [ ]: non-standard residue; d: D form. The star is where a group is joined. Biotin = O=C1N[C@H]2[C@H](CS[C@H]2CCCCC(=O)*)N1; S5 = C=CCCC[C@](C)(N)C(=O)O; AEEEA = NCCOCCOCCOCC(=O)O
Target: T1, Cytoplasmic FMR1-interacting protein 1 (CYFIP1), endogenous in MDA-MB-231 cells (human, UniProt Q7L576 1-1253)
T1 construct: Endogenous protein of a human breast cancer cell line, detected by western blot; also called SRA1
Assay: avidin-biotin pull-down with biotinylated peptide from treated MDA-MB-231 cells, western blot
Experimental: Specially, to determine the physical interaction with individual peptides, MDA-MB-231 cells were pretreated with 10 μM biotin-labeled peptides for 24 hours and lysates were incubated with immobilized avidin resin overnight at 4° C. The pull down samples were subjected to SDS-PAGE followed by Western blot analysis.

T1 sequence (Q7L576 whole entry): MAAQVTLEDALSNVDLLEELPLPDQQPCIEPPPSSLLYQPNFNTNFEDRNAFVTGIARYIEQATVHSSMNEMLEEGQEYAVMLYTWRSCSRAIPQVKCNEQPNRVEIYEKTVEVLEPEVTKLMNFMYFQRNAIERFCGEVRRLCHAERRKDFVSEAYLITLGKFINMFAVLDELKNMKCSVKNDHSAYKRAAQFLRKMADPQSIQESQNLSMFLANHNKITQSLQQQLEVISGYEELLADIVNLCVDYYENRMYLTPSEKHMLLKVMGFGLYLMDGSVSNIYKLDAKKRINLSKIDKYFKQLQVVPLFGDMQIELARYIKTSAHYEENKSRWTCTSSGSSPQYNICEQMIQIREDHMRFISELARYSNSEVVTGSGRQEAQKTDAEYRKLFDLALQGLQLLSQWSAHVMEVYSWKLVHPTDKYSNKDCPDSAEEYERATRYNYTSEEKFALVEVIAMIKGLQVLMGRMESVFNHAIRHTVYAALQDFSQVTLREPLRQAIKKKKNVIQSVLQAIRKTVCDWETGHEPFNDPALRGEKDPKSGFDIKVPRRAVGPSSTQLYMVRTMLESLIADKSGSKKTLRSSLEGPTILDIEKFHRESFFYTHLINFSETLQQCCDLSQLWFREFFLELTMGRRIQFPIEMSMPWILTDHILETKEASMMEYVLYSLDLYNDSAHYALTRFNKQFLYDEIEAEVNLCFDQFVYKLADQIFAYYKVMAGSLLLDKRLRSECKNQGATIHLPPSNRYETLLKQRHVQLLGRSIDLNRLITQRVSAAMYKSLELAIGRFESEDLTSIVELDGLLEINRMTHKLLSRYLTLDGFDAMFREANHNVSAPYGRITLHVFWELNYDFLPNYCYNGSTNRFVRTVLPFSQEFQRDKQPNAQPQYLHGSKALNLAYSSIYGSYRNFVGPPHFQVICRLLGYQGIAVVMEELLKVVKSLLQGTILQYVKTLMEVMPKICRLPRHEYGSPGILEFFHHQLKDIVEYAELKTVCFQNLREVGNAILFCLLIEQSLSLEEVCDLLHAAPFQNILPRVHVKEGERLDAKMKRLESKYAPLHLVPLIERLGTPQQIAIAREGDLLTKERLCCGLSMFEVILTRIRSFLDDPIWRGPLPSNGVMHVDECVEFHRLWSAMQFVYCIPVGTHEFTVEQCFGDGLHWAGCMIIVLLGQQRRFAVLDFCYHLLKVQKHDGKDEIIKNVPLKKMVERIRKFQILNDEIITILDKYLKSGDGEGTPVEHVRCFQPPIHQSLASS

B1: SCR1, scrambled stapled control peptide for WAHM1 (peptide)
peptide: {Biotin-AEEEA}-SRA[S5]LLI[S5]TKIQNELK-NH2
modifications: staple 4-8; not fully specified
notes: Negative control; also called scrambled control (SCR) peptide 1; SCR peptides
B1: no binding (tested: 10 µM).

B2: SCR2, scrambled stapled control peptide for WAHM2 (peptide)
peptide: {Biotin-AEEEA}-TRAILL[S5]ITK[S5]QNELK-NH2
modifications: staple 7-11; not fully specified
notes: Negative control; also called SCR peptides
B2: no binding (tested: 10 µM).

Source: US20180072782A1 (UNIVERSITY OF GEORGIA RESEARCH FOUNDATION, published 2018)
